As a reminder, the Km is the concentration of substrate that gives half-maximal velocity. For orientation: kcat means the maximal rate divided by the concentration of active sites.

Substrate in the data set: CC1=C(CCC(=O)O)c2cc3nc(cc4[nH]c(cc5[nH]c(cc1n2)c(C)c5CCC(=O)O)c(CCC(=O)O)c4C)C(CCC(=O)O)=C3C
In words: purified protein. It is filed as biochemical, Staphylococcus aureus. The settings on record: 0.7 µM Fe2+ (sub-inhibitory), 0.1 M Tris-HCl pH 8.1, 0.5% sodium cholate, 0.5% Tween 20, 1 mM beta-mercaptoethanol, 30 °C.

B1: S. aureus CpfC (coproporphyrin ferrochelatase) (Staphylococcus aureus subsp. aureus USA300) (protein)
chain: MTKKMGLLVMAYGTPYKESDIEPYYTDIRHGKRPSEEELQDLKDRYEFIGGLSPLAGTTDDQADALVSALNKAYADVEFKLYLGLKHISPFIEDAVEQMHNDGITEAITVVLAPHYSSFSVGSYDKRADEEAAKYGIQLTHVKHYYEQPKFIEYWTNKVNETLAQIPEEEHKDTVLVVSAHSLPKGLIEKNNDPYPQELEHTALLIKEQSNIEHIAIGWQSEGNTGTPWLGPDVQDLTRDLYEKHQYKNFIYTPVGFVCEHLEVLYDNDYECKVVCDDIGANYYRPKMPNTHPLFIGAIVDEIKSIF
notes: tag removal not mentioned
Regarding B1, the Michaelis-Menten constant (Km) worked out at 1.5 ± 0.2 µM and the kcat worked out at 0.175 ± 0.0067 s⁻¹.

The values are drawn from article PMC5633918, “The coproporphyrin ferrochelatase of Staphylococcus aureus: mechanistic insights into a regulatory iron-binding site” (Biochemical Journal, 2017).
